From publication doi:10.1101/2021.12.29.474442, “Microtubule plus-end regulation by centriolar cap proteins” (bioRxiv, 2021)

T1: CPAP-CC1 (residues 89-196) (human, UniProt Q9HC77 89-196)
T1 construct: CPAP (CENPJ), human, residues 89-196 (coiled-coil domain CC1); Cleaved with HRV 3C (PreScission site); also called CPAP 89-196; source: E. coli BL21(DE3), purified (Ni-NTA, tag cleavage, SEC); not shown: thioredoxin, N-terminal, cleaved; His6, N-terminal, cleaved
T1 sequence (looked up): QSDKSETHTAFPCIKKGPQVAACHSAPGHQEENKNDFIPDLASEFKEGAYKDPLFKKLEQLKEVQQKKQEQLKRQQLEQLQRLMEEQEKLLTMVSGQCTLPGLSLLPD


Legend:
[1] = biological target: the molecule itself; test: SEC-MALS; 20°C, Superdex S75 or S200 10/30, 20 mM HEPES pH 7.5, 150 mM NaCl, 2 mM DTT; about 7 mg/ml loaded; proteins alone and equimolar (also 2:1, 3:1) mixtures
[2] = biological target: T1, CPAP-CC1 (residues 89-196); test: cross-linking; zero-length cross-linker DMTMM (60 mM, 6 min, 25°C) followed by mass spectrometry (xQuest); conditions: both partners purified
[3] = biological target: the molecule itself; test: single-molecule fluorescence intensity counting (TIRF); single molecules immobilised on coverslips in MRB80 buffer; intensity compared with purified GFP (monomers) and GFP-EB3 (dimers)

Row | Binder | stoichiometry N [1] | binding result [2] | stoichiometry N [3]
1 | CP110-CC2 (residues 635-717) (domain or fragment, human, UniProt O43303-2 635-717, looked up, CP110, human, residues 635-717 (coiled-coil domain CC2); Homodimer alone by SEC-MALS; one chain of it stands in the heterodimer with CPAP-CC1; source: E. coli BL21(DE3), purified (Ni-NTA, tag cleavage, SEC); not shown: thioredoxin, N-terminal, cleaved; His6, N-terminal, cleaved) GTSSKESEELLKSKMLAFEEMRKRLEEQHAQQLSLLIAEQEREQERLQKEIEEQEKMLKEKKAMTAEASELDINNAVELEWRK | 2 | binds | –
2 | CEP97^CP110-GFP-SII (chimera of CEP97 1-650 and CP110 581-991) (other, human, UniProt Q8IW35 1-650, looked up, CEP97, human, N-terminal amino acids 1-650; A dimer by single-molecule fluorescence intensity; No linker between the two parts is told. pTT5 based vector (Addgene #52355 is the vector); also called CEP97-CP110 chimera; CP110-CEP97 fusion) MAVARVDAALPPGEGSVVNWSGQGLQKLGPNLPCEADIHTLILDKNQIIKLENLEKCKRLIQLSVANNRLVRMMGVAKLTLLRVLNLPHNSIGCVEGLKELVHLEWLNLAGNNLKAMEQINSCTALQHLDLSDNNISQIGDLSKLVSLKTLLLHGNIITSLRMAPAYLPRSLAILSLAENEIRDLNEISFLASLTELEQLSIMNNPCVMATPSIPGFDYRPYIVSWCLNLRVLDGYVISQKESLKAEWLYSQGKGRAYRPGQHIQLVQYLATVCPLTSTLGLQTAEDAKLEKILSKQRFHQRQLMNQSQNEELSPLVPVETRASLIPEHSSPVQDCQISQESEPVIQVNSWVGINSNDDQLFAVKNNFPASVHTTRYSRNDLHLEDIQTDEDKLNCSLLSSESTFMPVASGLSPLSPTVELRLQGINLGLEDDGVADESVKGLESQVLDKEEEQPLWAANENSVQMMRSEINTEVNEKAGLLPCPEPTIISAILKDDNHSLTFFPESTEQKQSDIKKPENTQPENKETISQATSEKLPMILTQRSVALGQDKVALQKLNDAATKLQACWRGFYARNYNPQAKDVRYEIRLRRMQEHIVCLTDEIRRLRKERDEERIKKFVQEEAFRFLWNQVRSLQVWQQTVDQRLSSWHFEKVKRRLDLDIDGLQKENCPYVITSGITEQERQHLPEKRYPKGSGFVNKNKMLGTSSKESEELLKSKMLAFEEMRKRLEEQHAQQLSLLIAEQEREQERLQKEIEEQEKMLKEKKAMTAEASELDINNAVELEWRKISDSSLLETMLSQADSLHTSNSNSSGFTNSAMQYSFVSANEAPFYLWGSSTSGLTKLSVTRPFGRAKTRWSQVFSLEIQAKFNKITAVAKGFLTRRLMQTDKLKQLRQTVKDTMEFIRSFQSEAPLKRGIVSAQDASLQERVLAQLRAALYGIHDIFFVMDAAERMSILHHDREVRKEKMLRQMDKMKSPRVALSAATQKSLDRKKYMKAAEMGMPNKKFLVKQNPSETRVLQPNQGQNAPVHRLLSRQGSICRKNPKKAAKCCDNLRRQHSLG | – | – | 2
